This passage reports dUTPase enzymatic assay (37°C, 5 min, no reducing agent) and stoichiometry N results from publication PMC6199149.

What is called stoichiometry N is a count of units in the complex or per binding partner.

Assay [1] deals with recombinant Wt nuclear dUTPase with N-terminal hexahistidine tag, from E. coli (human). The conditions noted are these: scale: pmol of dUTP per minute per ng of protein.
The target in assay [2] is nuclear dUTP nucleotidohydrolase (nuclear isoform of dUTPase), endogenous (human (endogenous in U-2 OS, Saos2, A549, 18Co, HeLa)). Kind of assay: cross-linking.
For assay [3] the target is unchanged. Kind of assay: non-reducing SDS-PAGE with western blot. (Immunoblotting shows a protein as a band on a membrane.)

For the substance “recombinant Wt nuclear dUTPase with N-terminal hexahistidine tag, from E. coli (enzyme)”, the dUTPase enzymatic assay (37°C, 5 min, no reducing agent) in assay [1] turned out to be 7.27.

Turning to “nuclear dUTP nucleotidohydrolase (nuclear isoform of dUTPase), endogenous (enzyme)”, the stoichiometry N in assay [2] and in assay [3] was 2 throughout.
